According to US20170209564A1:

How the values were obtained:
Assay in all cases: ELISA signal over HTRF expression signal, P. pastoris
Details in all cases: remark: other sources report otherwise
11F4 = target: 11F4
11H6 = target: 11H6
12C6 = target: 12C6
1F2 = target: 1F2
2C4 = target: 2C4
36H2 = target: 36H2
48B11 = target: 48B11
48D11 = target: 48D11
4C1 = target: 4C1
50G10 = target: 50G10
51G10 = target: 51G10
54H4 = target: 54H4
55G7 = target: 55G7
56D2 = target: 56D2
58A5 = target: 58A5
60A2 = target: 60A2
63D3 = target: 63D3
66C8 = target: 66C8
67C11 = target: 67C11
69D2 = target: 69D2
6A1 = target: 6A1
71H2 = target: 71H2
75E9 = target: 75E9
75H8 = target: 75H8
79C2 = target: 79C2
79D5 = target: 79D5
79F8 = target: 79F8
7A7 = target: 7A7
7B6 = target: 7B6
7D9 = target: 7D9
80F10 = target: 80F10
81F11 = target: 81F11
85A7 = target: 85A7
86G2 = target: 86G2
87H5 = target: 87H5
8D7 = target: 8D7
91F10 = target: 91F10
97G10 = target: 97G10

B1: CR6261 (antibody, V domains shown)
VH: EVQLVESGAEVKKPGSSVKVSCKASGGPFRSYAISWVRQAPGQGPEWMGGIIPIFGTTKYAPKFQGRVTITADDFAGTVYMELSSLRSEDTAMYYCAKHMGYQVRETMDVWGKGTTVTVSS
VL: QSVLTQPPSVSAAPGQKVTISCSGSSSNIGNDYVSWYQQLPGTAPKLLIYDNNKRPSGIPDRFSGSKSGTSATLGITGLQTGDEANYYCATWDRRPTAYVVFGGGTKLTVLG
In the case of B1, the fold increase of ratio over parental SEQ ID NO: 6 (11F4) is reported as 2.54, the ratio (binding signal/HTRF signal) (11F4) is reported as 15.1 and the fold increase of ratio over parental SEQ ID NO: 6 (11H6) is reported as 7.87. For the same binder, the ratio (binding signal/HTRF signal) (11H6) was 46.7, the fold increase of ratio over parental SEQ ID NO: 6 (12C6) was 2.43 and the ratio (binding signal/HTRF signal) (12C6) was 14.4. The fold increase of ratio over parental SEQ ID NO: 6 (1F2) was 2.04, the ratio (binding signal/HTRF signal) (1F2) was 12.1 and the fold increase of ratio over parental SEQ ID NO: 6 (2C4) was 4.29. It also gave a ratio (binding signal/HTRF signal) (2C4) of 25.5, a fold increase of ratio over parental SEQ ID NO: 6 (36H2) of 1.95 and a ratio (binding signal/HTRF signal) (36H2) of 11.6. The fold increase of ratio over parental SEQ ID NO: 6 (48B11) was 3.41, the ratio (binding signal/HTRF signal) (48B11) was 20.3 and the fold increase of ratio over parental SEQ ID NO: 6 (48D11) was 2.98. It also gave a ratio (binding signal/HTRF signal) (48D11) of 17.7, a fold increase of ratio over parental SEQ ID NO: 6 (4C1) of 3.92 and a ratio (binding signal/HTRF signal) (4C1) of 23.3. The fold increase of ratio over parental SEQ ID NO: 6 (50G10) was 4.7, the ratio (binding signal/HTRF signal) (50G10) was 27.9 and the fold increase of ratio over parental SEQ ID NO: 6 (51G10) was 3.73. For the same binder, the ratio (binding signal/HTRF signal) (51G10) was 22.1, the fold increase of ratio over parental SEQ ID NO: 6 (54H4) was 8.39 and the ratio (binding signal/HTRF signal) (54H4) was 49.8. For the same binder, the fold increase of ratio over parental SEQ ID NO: 6 (55G7) was 11.8, the ratio (binding signal/HTRF signal) (55G7) was 70.3 and the fold increase of ratio over parental SEQ ID NO: 6 (56D2) was 2.3. For the same binder, the ratio (binding signal/HTRF signal) (56D2) was 13.7, the fold increase of ratio over parental SEQ ID NO: 6 (58A5) was 3.69 and the ratio (binding signal/HTRF signal) (58A5) was 21.9. For the same binder, the fold increase of ratio over parental SEQ ID NO: 6 (60A2) was 2.53, the ratio (binding signal/HTRF signal) (60A2) was 15 and the fold increase of ratio over parental SEQ ID NO: 6 (63D3) was 1.87. The ratio (binding signal/HTRF signal) (63D3) was 11.1, the fold increase of ratio over parental SEQ ID NO: 6 (66C8) was 2.29 and the ratio (binding signal/HTRF signal) (66C8) was 13.6. It also gave a fold increase of ratio over parental SEQ ID NO: 6 (67C11) of 3.57, a ratio (binding signal/HTRF signal) (67C11) of 21.2 and a fold increase of ratio over parental SEQ ID NO: 6 (69D2) of 2.19. For the same binder, the ratio (binding signal/HTRF signal) (69D2) was 13, the fold increase of ratio over parental SEQ ID NO: 6 (6A1) was 4.63 and the ratio (binding signal/HTRF signal) (6A1) was 27.5. It also gave a fold increase of ratio over parental SEQ ID NO: 6 (71H2) of 11.2, a ratio (binding signal/HTRF signal) (71H2) of 66.3 and a fold increase of ratio over parental SEQ ID NO: 6 (75E9) of 2.17. It also gave a ratio (binding signal/HTRF signal) (75E9) of 12.9, a fold increase of ratio over parental SEQ ID NO: 6 (75H8) of 1.73 and a ratio (binding signal/HTRF signal) (75H8) of 10.2. The fold increase of ratio over parental SEQ ID NO: 6 (79C2) was 8.62, the ratio (binding signal/HTRF signal) (79C2) was 51.2 and the fold increase of ratio over parental SEQ ID NO: 6 (79D5) was 8.46. It also gave a ratio (binding signal/HTRF signal) (79D5) of 50.2, a fold increase of ratio over parental SEQ ID NO: 6 (79F8) of 2.64 and a ratio (binding signal/HTRF signal) (79F8) of 15.7. For the same binder, the fold increase of ratio over parental SEQ ID NO: 6 (7A7) was 12.4, the ratio (binding signal/HTRF signal) (7A7) was 73.4 and the fold increase of ratio over parental SEQ ID NO: 6 (7B6) was 1.66. It also gave a ratio (binding signal/HTRF signal) (7B6) of 9.84, a fold increase of ratio over parental SEQ ID NO: 6 (7D9) of 2.07 and a ratio (binding signal/HTRF signal) (7D9) of 12.3. The fold increase of ratio over parental SEQ ID NO: 6 (80F10) was 1.78, the ratio (binding signal/HTRF signal) (80F10) was 10.6 and the fold increase of ratio over parental SEQ ID NO: 6 (81F11) was 5.37. The ratio (binding signal/HTRF signal) (81F11) was 31.9, the fold increase of ratio over parental SEQ ID NO: 6 (85A7) was 4.72 and the ratio (binding signal/HTRF signal) (85A7) was 28. For the same binder, the fold increase of ratio over parental SEQ ID NO: 6 (86G2) was 1.93, the ratio (binding signal/HTRF signal) (86G2) was 11.5 and the fold increase of ratio over parental SEQ ID NO: 6 (87H5) was 1.64. The ratio (binding signal/HTRF signal) (87H5) was 9.77, the fold increase of ratio over parental SEQ ID NO: 6 (8D7) was 1.69 and the ratio (binding signal/HTRF signal) (8D7) was 10. It also gave a fold increase of ratio over parental SEQ ID NO: 6 (91F10) of 1.78, a ratio (binding signal/HTRF signal) (91F10) of 10.6 and a fold increase of ratio over parental SEQ ID NO: 6 (97G10) of 2.12. For the same binder, the ratio (binding signal/HTRF signal) (97G10) was 12.6.
